For the data set, the target named is RNase HI catalytic domain (wild-type) (Bacillus halodurans, UniProt Q9KEI9 59-196). As to the kind of experiment: EMSA; 10 uM DNA, 50 uM protein; 100 mM K+; Native 10% PAGE in 1X TBE, 20 mM potassium phosphate, 100 mM KCl, pH 7.0; UV shadowing; temperature not stated. The conditions noted are these: protein: recombinant. On the technique in general: A gel shift assay detects complexes by their altered migration in electrophoresis.
Chain of RNase HI catalytic domain (wild-type) (Q9KEI9 59-196): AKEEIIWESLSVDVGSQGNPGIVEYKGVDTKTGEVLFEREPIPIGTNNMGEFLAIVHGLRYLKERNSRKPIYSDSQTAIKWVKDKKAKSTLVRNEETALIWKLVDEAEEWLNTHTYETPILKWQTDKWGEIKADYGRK

B1: B0 (ssDNA)
DNA: TTGACTAAGTGCCTTAGTTCAACGACGACGGCATCATC
For B1, the binding result (single strand) is “no binding”.

B2: B1 (structured_DNA)
DNA: TTGGGTGGGTGGGTGGGTTCAACGACGACGGCATCATC
For B2, for the setting “parallel G4 with 3' single-stranded tail”, the binding result is reported as “no binding”.

These data come from PMC6520340, “Development of a ribonuclease containing a G4-specific binding motif for programmable RNA cleavage”.
